From PMC7967050 (Advanced Science, 2021)

B1: anti-CD38 scFv antibody RP02 (scFv, V domains shown)
VH: PAQLVESGPGLVKPSGTLSLTCAVSGGSISSSNWWSWVRQPPGKGLEWIGEIYHSGSTNYNPSLKSRVTISVDKSKNQFSLKLSSVTAADTAVYYCAREDYYYYMDVWGKGTTVTVQS
VL: QSVLTQPPSVSAAPGQKVTISCSGSSSNIGNNYVSWYQQLPGTAPKLLIYDNNKRPSGIPDRFSGSKSGTSATLGITGLQTGDEADYYCGTWDSSLSAGVFGGGTKLTVL
notes: selected from a combinatorial scFv phage library; In the functional rows the scFv stands in a CAR on T cells; also called RP02 scFv; source: purified scFv
B2: high-affinity anti-CD38 antibody 028 (scFv) (scFv, V domains shown)
VH: QVQLVQSGAEVKKPGSSVKVSCKAFGGTFSSYAISWVRQAPGQGLEWMGRIIRFLGIANYAQKFQGRVTLIADKSTNTAYMELSSLRSEDTAVYYCAGEPGERDPDAVDIWGQGTMVTVSS
VL: DIQMTQSPSSLSASVGDRVTITCRASQGIRSWLAWYQQKPEKAPKSLIYAASSLQSGVPSRFSGSGSGTDFTLTISSLQPEDFATYYCQQYNSYPLTFGGGTKVEIK
notes: In the functional rows the scFv stands in a CAR on T cells; source: purified scFv

What was measured:
[1] = biological target: T1, CD38 on the cell surface (RPMI8226, Daudi, hPBMC) (Homo sapiens, UniProt P28907); experiment: flow cytometry on cells; purified scFv incubated with hPBMC, Daudi or RPMI8226 cells, fluorescence labeled secondary antibody; MFI normalised to that of 028 scFv; conditions: one partner purified
T1 construct: human CD38, endogenous on the surface of RPMI8226, Daudi and PBMC cells; In the functional rows the same protein is also expressed in K562 cells from electroporated CD38 mRNA; also called cell surface CD38; membrane-expressed CD38; source: endogenous, on RPMI8226, Daudi and human PBMC cells

[2] = biological target: T2, ECD domain of mouse CD38 (Mus musculus, UniProt P56528); experiment: BLI; purified scFv antibodies against mCD38-ECD on an Octet; set-up for the mouse protein not told; conditions: both partners purified
T2 construct: mouse CD38, extracellular domain; also called mCD38-ECD

[3] = biological target: T3, Recombinant human CD38 extracellular domain (amino acids 43–300, hCD38-ECD) (Homo sapiens, UniProt P28907, biotin (EZ-Link NHS-PEG4-biotin) for panning and for capture on the SA biosensor; not said for the cross-linking); experiment: BLI; Octet Red96, room temperature; biotin conjugated hCD38-ECD captured on SA biosensor; scFv in PBS, 0.02% Tween-20, 0.05% BSA, pH 7.4; association 300 s, dissociation 1200 s; 1:1 Langmuir model; for RP02 (biphasic dissociation) only the initial 0-330 s fitted, apparent KD; conditions: both partners purified
T3 construct: human CD38, extracellular domain, amino acids 43-300; also called purified CD38; extracellular domain of human CD38; source: bought: Sino Biological, Cat. No. 10818-H08H

T2 sequence (P56528 45-304): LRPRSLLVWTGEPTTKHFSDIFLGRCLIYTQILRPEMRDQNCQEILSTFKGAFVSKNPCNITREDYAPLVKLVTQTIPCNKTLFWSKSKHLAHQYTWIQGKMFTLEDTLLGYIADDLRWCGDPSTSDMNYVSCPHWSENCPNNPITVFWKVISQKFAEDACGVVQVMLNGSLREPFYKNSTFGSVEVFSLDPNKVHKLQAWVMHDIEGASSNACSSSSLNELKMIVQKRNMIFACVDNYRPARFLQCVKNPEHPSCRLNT

Binder | binding result [1] | binding result [2] | Kd [3]
B1 | binds | no binding | 
B2 |  |  | 0.65 nM
